Assay results reported in publication PMC3985815.

What was measured:
Test in all cases: purified protein
[1] = substrate: CNc1ncnc2c1ncn2[C@@H]1O[C@H](COP(=O)(O)O)[C@@H](OP(=O)(O)O)[C@H]1O; conditions: 25 mM HEPES, 250 mM KCl, pH 7.5, 30 °C
[2] = substrate: Cc1cn([C@H]2C[C@H](OP(=O)(O)O)[C@@H](COP(=O)(O)O)O2)c(=O)[nH]c1=O; conditions: 25 mM HEPES, 250 mM KCl, pH 7.5, 30 °C
[3] = substrate: Nc1ccn([C@H]2C[C@H](OP(=O)(O)O)[C@@H](COP(=O)(O)O)O2)c(=O)n1; conditions: 25 mM HEPES, 250 mM KCl, pH 7.5, 30 °C
[4] = substrate: Nc1nc2c(ncn2[C@H]2C[C@H](OP(=O)(O)O)[C@@H](COP(=O)(O)O)O2)c(=O)[nH]1; conditions: 25 mM HEPES, 250 mM KCl, pH 7.5, 30 °C
[5] = substrate: Nc1ncnc2c1ncn2[C@@H]1O[C@H](COP(=O)(O)O)[C@@H](OP(=O)(O)O)[C@H]1O; conditions: 25 mM HEPES, 250 mM KCl, pH 7.5, 30 °C
[6] = substrate: Nc1ncnc2c1ncn2[C@@H]1O[C@H](COP(=O)(O)O[C@H]2[C@@H](O)[C@H](n3cnc4c(N)ncnc43)O[C@@H]2COP(=O)(O)O)[C@@H](O)[C@H]1O; conditions: 50 mM HEPES, 250 mM KCl, 5.0 mM MgCl2, pH 7.5
[7] = substrate: Nc1ncnc2c1ncn2[C@H]1C[C@H](OP(=O)(O)O)[C@@H](COP(=O)(O)O)O1; conditions: 25 mM HEPES, 250 mM KCl, pH 7.5, 30 °C
[8] = substrate: O=c1[nH]cnc2c1ncn2[C@H]1C[C@H](OP(=O)(O)O)[C@@H](COP(=O)(O)O)O1; conditions: 25 mM HEPES, 250 mM KCl, pH 7.5, 30 °C
[9] = substrate: O=c1ccn([C@H]2C[C@H](OP(=O)(O)O)[C@@H](COP(=O)(O)O)O2)c(=O)[nH]1; conditions: 25 mM HEPES, 250 mM KCl, pH 7.5, 30 °C

B1: Cv1693 (Chromobacterium violaceum ATCC 12472) (protein)
chain: MANIDLHFHSRTSDGALTPTEVIDRAAARAPALLALTDHDCTGGLAEAAAAAARRGIPFLNGVEVSVSWGRHTVHIVGLGIDPAEPALAAGLKSIREGRLERARQMGASLEAAGIAGCFDGAMRWCDNPEMISRTHFARHLVDSGAVKDMRTVFRKYLTPGKPGYVSHQWASLEDAVGWIVGAGGMAVIAHPGRYDMGRTLIERLILDFQAAGGQGIEVASGSHSLDDMHKFALHADRHGLYASSGSDFHAPGEGGRDVGHTEDLPPICRPIWRELEARILRPAD
Work on B1 yielded a Km [1] of 5.4 ± 1.0 µM, a kcat [1] of 11.6 ± 0.4 s⁻¹ and a kcat/Km [1] of 2.1e+06 ± 400000 M⁻¹ s⁻¹. The Km [2] was 9.3 ± 1.0 µM, the kcat [2] was 3.3 ± 0.1 s⁻¹ and the kcat/Km [2] was 360000 ± 40000 M⁻¹ s⁻¹. It also gave a Km [3] of 26 ± 3 µM, a kcat [3] of 9.4 ± 0.3 s⁻¹ and a kcat/Km [3] of 360000 ± 50000 M⁻¹ s⁻¹. For the same protein, the Km [4] was 5.2 ± 0.4 µM, the kcat [4] was 4.2 ± 0.1 s⁻¹ and the kcat/Km [4] was 790000 ± 60000 M⁻¹ s⁻¹. For the same protein, the Km [5] was 15.5 ± 2.4 µM, the kcat [5] was 22 ± 1 s⁻¹ and the kcat/Km [5] was 1.4e+06 ± 200000 M⁻¹ s⁻¹. The Km [6] was 1.6 ± 0.2 µM, the kcat [6] was 0.05 ± 0.01 s⁻¹ and the kcat/Km [6] was 32000 ± 3000 M⁻¹ s⁻¹. The Km [7] was 10.2 ± 0.9 µM, the kcat [7] was 7.1 ± 0.2 s⁻¹ and the kcat/Km [7] was 700000 ± 60000 M⁻¹ s⁻¹. The Km [8] was 22 ± 3 µM, the kcat [8] was 4.3 ± 0.2 s⁻¹ and the kcat/Km [8] was 190000 ± 30000 M⁻¹ s⁻¹. It also gave a Km [9] of 29 ± 4 µM, a kcat [9] of 5.2 ± 0.2 s⁻¹ and a kcat/Km [9] of 180000 ± 20000 M⁻¹ s⁻¹.
